Measured values taken from patent US20150344570A1 (published 2015).

B1: GpH7-B3 variant H268_12R/GpL16-k0 (antibody, human IgG1, kappa)
heavy: not shown
light: DIVMTQSPLSLPVTPGEPASISCQASESLVHSNRNTYLHWYLQKPGQSPQLLIYKVSNRFSGVPDRFSGSGSGTDFTLKISRVEAEDVGVYYCSQNTHVPPTFGQGTKVEIERTVAAPSVFIFPPSDEQLKSGTASVVCLLNNFYPREAKVQWKVDNALQSGNSQESVTEQDSKDSTYSLSSTLTLSKADYEKHKVYACEVTHQGLSSPVTKSFNRGEC
notes: also called Ho Ab H268_12R
B2: GpH7-A5/GpH7-B3 variant E269_01G/GpL16-k0 (antibody, human IgG1, kappa)
heavy 1: not shown
heavy 2: not shown
light: B1 light
notes: also called He Ab E269_01G
B3: GpH7-A5/GpH7-B3 variant A327_10E/GpL16-k0 (antibody, human IgG1, kappa)
heavy 1: not shown
heavy 2: not shown
light: B1 light
notes: also called He Ab A327_10E
B4: GpH7-B3 variant L328_10E/GpL16-k0 (antibody, human IgG1, kappa)
heavy: not shown
light: B1 light
notes: also called Ho Ab L328_10E
B5: GpH7-B3 variant P238_04F/GpL16-k0 (antibody, human IgG1, kappa)
heavy: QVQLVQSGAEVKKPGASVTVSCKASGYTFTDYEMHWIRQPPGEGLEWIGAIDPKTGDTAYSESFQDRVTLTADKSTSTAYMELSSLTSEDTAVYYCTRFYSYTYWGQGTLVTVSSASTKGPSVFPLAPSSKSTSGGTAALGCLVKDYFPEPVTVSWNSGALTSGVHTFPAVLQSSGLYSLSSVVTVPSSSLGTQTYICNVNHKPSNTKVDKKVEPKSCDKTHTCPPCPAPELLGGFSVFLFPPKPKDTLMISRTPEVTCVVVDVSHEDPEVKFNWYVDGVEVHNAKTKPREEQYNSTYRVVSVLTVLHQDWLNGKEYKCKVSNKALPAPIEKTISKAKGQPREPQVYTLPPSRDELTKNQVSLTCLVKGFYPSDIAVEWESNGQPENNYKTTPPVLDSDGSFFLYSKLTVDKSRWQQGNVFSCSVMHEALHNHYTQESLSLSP
light: B1 light
notes: also called Ho Ab P238_04F
B6: GpH7-B3 variant P238_03V/GpL16-k0 (antibody, human IgG1, kappa)
heavy: not shown
light: B1 light
notes: also called Ho Ab P238_03V
B7: GpH7-B3 variant K326_16H/GpL16-k0 (antibody, human IgG1, kappa)
heavy: not shown
light: B1 light
notes: also called Ho Ab K326_16H
B8: GpH7-B3 variant L328_14T/GpL16-k0 (antibody, human IgG1, kappa)
heavy: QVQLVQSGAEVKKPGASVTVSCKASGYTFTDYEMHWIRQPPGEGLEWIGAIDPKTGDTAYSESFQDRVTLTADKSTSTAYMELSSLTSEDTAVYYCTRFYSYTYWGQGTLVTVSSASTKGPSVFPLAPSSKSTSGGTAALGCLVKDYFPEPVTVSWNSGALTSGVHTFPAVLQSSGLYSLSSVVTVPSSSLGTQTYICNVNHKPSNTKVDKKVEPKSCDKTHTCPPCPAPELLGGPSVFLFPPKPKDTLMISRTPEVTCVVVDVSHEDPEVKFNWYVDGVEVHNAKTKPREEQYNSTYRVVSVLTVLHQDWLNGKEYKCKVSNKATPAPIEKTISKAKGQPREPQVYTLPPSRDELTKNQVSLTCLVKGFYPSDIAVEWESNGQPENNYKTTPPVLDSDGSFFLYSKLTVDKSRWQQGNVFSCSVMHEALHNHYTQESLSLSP
light: B1 light
notes: also called Ho Ab L328_14T
B9: GpH7-B3 variant I336_01G/GpL16-k0 (antibody, human IgG1, kappa)
heavy: not shown
light: B1 light
notes: also called Ho Ab I336_01G
B10: GpH7-B3 variant Q295_15Y/GpL16-k0 (antibody, human IgG1, kappa)
heavy: not shown
light: B1 light
notes: also called Ho Ab Q295_15Y
B11: GpH7-B3 variant P271_15Y/GpL16-k0 (antibody, human IgG1, kappa)
heavy: not shown
light: B1 light
notes: also called Ho Ab P271_15Y
B12: GpH7-B3 variant K334_06M/GpL16-k0 (antibody, human IgG1, kappa)
heavy: not shown
light: B1 light
notes: also called Ho Ab K334_06M
B13: GpH7-B3 variant L328_19Q/GpL16-k0 (antibody, human IgG1, kappa)
heavy: not shown
light: B1 light
notes: also called Ho Ab L328_19Q
B14: GpH7-B3 variant I336_03V/GpL16-k0 (antibody, human IgG1, kappa)
heavy: not shown
light: B1 light
notes: also called Ho Ab I336_03V
B15: GpH7-B3 variant K334_10E/GpL16-k0 (antibody, human IgG1, kappa)
heavy: not shown
light: B1 light
notes: also called Ho Ab K334_10E
B16: GpH7-B3 variant I336_02A/GpL16-k0 (antibody, human IgG1, kappa)
heavy: not shown
light: B1 light
notes: also called Ho Ab I336_02A
B17: GpH7-B3 variant L328_20W/GpL16-k0 (antibody, human IgG1, kappa)
heavy: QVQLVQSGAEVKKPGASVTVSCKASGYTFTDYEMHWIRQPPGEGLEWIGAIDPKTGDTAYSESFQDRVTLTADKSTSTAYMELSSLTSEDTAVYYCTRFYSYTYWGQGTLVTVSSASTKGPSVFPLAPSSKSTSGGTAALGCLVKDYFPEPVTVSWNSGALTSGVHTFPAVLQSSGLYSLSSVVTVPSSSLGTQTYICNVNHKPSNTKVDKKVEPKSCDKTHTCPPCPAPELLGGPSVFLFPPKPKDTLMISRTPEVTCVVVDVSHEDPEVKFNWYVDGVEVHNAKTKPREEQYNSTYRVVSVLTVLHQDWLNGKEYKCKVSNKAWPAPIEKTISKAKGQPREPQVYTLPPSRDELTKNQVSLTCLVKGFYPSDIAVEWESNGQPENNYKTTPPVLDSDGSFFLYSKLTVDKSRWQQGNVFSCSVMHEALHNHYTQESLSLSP
light: B1 light
notes: also called Ho Ab L328_20W
B18: GpH7-B3 variant H268_20W/GpL16-k0 (antibody, human IgG1, kappa)
heavy: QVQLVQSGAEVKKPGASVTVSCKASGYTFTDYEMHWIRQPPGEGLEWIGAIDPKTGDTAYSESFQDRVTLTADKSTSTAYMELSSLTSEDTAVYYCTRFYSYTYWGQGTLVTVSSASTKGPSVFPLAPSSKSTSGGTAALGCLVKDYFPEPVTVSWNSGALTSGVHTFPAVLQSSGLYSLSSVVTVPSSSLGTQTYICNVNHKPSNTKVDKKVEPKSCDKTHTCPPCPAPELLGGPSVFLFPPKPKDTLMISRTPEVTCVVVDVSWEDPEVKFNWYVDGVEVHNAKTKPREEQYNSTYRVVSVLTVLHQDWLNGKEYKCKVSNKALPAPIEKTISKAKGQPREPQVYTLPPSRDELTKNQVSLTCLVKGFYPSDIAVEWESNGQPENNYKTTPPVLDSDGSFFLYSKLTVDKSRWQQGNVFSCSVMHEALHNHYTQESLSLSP
light: B1 light
notes: also called Ho Ab H268_20W
B19: GpH7-B3 variant L234_10E/GpL16-k0 (antibody, human IgG1, kappa)
heavy: not shown
light: B1 light
notes: also called Ho Ab L234_10E
B20: GpH7-B3 variant I336_06M/GpL16-k0 (antibody, human IgG1, kappa)
heavy: not shown
light: B1 light
notes: also called Ho Ab I336_06M
B21: GpH7-A5/GpH7-B3 variant A327_06M/GpL16-k0 (antibody, human IgG1, kappa)
heavy 1: not shown
heavy 2: not shown
light: B1 light
notes: also called He Ab A327_06M
B22: GpH7-B3 variant L328_03V/GpL16-k0 (antibody, human IgG1, kappa)
heavy: not shown
light: B1 light
notes: also called Ho Ab L328_03V
B23: GpH7-B3 variant L234_04F/GpL16-k0 (antibody, human IgG1, kappa)
heavy: not shown
light: B1 light
notes: also called Ho Ab L234_04F
B24: GpH7-B3 variant I336_04F/GpL16-k0 (antibody, human IgG1, kappa)
heavy: not shown
light: B1 light
notes: also called Ho Ab I336_04F
B25: GpH7-B3 variant P329_01G/GpL16-k0 (antibody, human IgG1, kappa)
heavy: not shown
light: B1 light
notes: also called Ho Ab P329_01G
B26: GpH7-B3 variant K326_14T/GpL16-k0 (antibody, human IgG1, kappa)
heavy: not shown
light: B1 light
notes: also called Ho Ab K326_14T
B27: GpH7-B3 variant K334_20W/GpL16-k0 (antibody, human IgG1, kappa)
heavy: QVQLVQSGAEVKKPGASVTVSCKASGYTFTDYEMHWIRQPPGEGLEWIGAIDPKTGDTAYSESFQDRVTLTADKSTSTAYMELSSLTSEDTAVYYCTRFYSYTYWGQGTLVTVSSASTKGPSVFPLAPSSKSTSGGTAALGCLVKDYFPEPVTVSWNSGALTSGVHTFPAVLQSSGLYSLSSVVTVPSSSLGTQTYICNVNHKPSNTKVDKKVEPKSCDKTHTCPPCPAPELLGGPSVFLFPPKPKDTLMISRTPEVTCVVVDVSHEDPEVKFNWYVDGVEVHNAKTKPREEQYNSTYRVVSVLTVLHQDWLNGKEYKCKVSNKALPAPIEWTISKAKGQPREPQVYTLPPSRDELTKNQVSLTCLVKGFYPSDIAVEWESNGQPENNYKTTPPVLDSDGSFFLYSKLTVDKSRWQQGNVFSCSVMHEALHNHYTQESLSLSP
light: B1 light
notes: also called Ho Ab K334_20W
B28: GpH7-B3 variant Q295_11K/GpL16-k0 (antibody, human IgG1, kappa)
heavy: not shown
light: B1 light
notes: also called Ho Ab Q295_11K
B29: GpH7-B3 variant P238_08L/GpL16-k0 (antibody, human IgG1, kappa)
heavy: not shown
light: B1 light
notes: also called Ho Ab P238_08L
B30: GpH7-A5/GpH7-B3 variant A327_13S/GpL16-k0 (antibody, human IgG1, kappa)
heavy 1: not shown
heavy 2: not shown
light: B1 light
notes: also called He Ab A327_13S
B31: GpH7-B3 variant P271_14T/GpL16-k0 (antibody, human IgG1, kappa)
heavy: not shown
light: B1 light
notes: also called Ho Ab P271_14T
B32: GpH7-A5/GpH7-B3 variant A327_03V/GpL16-k0 (antibody, human IgG1, kappa)
heavy 1: not shown
heavy 2: not shown
light: B1 light
notes: also called He Ab A327_03V
B33: GpH7-B3 variant P271_16H/GpL16-k0 (antibody, human IgG1, kappa)
heavy: not shown
light: B1 light
notes: also called Ho Ab P271_16H
B34: GpH7-B3 variant K326_18N/GpL16-k0 (antibody, human IgG1, kappa)
heavy: not shown
light: B1 light
notes: also called Ho Ab K326_18N
B35: GpH7-B3 variant L234_07I/GpL16-k0 (antibody, human IgG1, kappa)
heavy: not shown
light: B1 light
notes: also called Ho Ab L234_07I
B36: GpH7-B3 variant L234_15Y/GpL16-k0 (antibody, human IgG1, kappa)
heavy: not shown
light: B1 light
notes: also called Ho Ab L234_15Y
B37: GpH7-B3 variant K326_15Y/GpL16-k0 (antibody, human IgG1, kappa)
heavy: not shown
light: B1 light
notes: also called Ho Ab K326_15Y
B38: GpH7-B3 variant P238_06M/GpL16-k0 (antibody, human IgG1, kappa)
heavy: not shown
light: B1 light
notes: also called Ho Ab P238_06M
B39: GpH7-B3 variant Q295_09D/GpL16-k0 (antibody, human IgG1, kappa)
heavy: not shown
light: B1 light
notes: also called Ho Ab Q295_09D
B40: GpH7-B3 variant P238_15Y/GpL16-k0 (antibody, human IgG1, kappa)
heavy: not shown
light: B1 light
notes: also called Ho Ab P238_15Y
B41: GpH7-B3 variant P271_03V/GpL16-k0 (antibody, human IgG1, kappa)
heavy: not shown
light: B1 light
notes: also called Ho Ab P271_03V
B42: GpH7-B3 variant P329_02A/GpL16-k0 (antibody, human IgG1, kappa)
heavy: not shown
light: B1 light
notes: also called Ho Ab P329_02A
B43: GpH7-B3 variant K326_12R/GpL16-k0 (antibody, human IgG1, kappa)
heavy: not shown
light: B1 light
notes: also called Ho Ab K326_12R
B44: GpH7-B3 variant L234_03V/GpL16-k0 (antibody, human IgG1, kappa)
heavy: not shown
light: B1 light
notes: also called Ho Ab L234_03V
B45: GpH7-A5/GpH7-B3 variant A330_08L/GpL16-k0 (antibody, human IgG1, kappa)
heavy 1: not shown
heavy 2: not shown
light: B1 light
notes: also called He Ab A330_08L
B46: GpH7-B3 variant L234_06M/GpL16-k0 (antibody, human IgG1, kappa)
heavy: not shown
light: B1 light
notes: also called Ho Ab L234_06M
B47: GpH7-B3 variant I336_18N/GpL16-k0 (antibody, human IgG1, kappa)
heavy: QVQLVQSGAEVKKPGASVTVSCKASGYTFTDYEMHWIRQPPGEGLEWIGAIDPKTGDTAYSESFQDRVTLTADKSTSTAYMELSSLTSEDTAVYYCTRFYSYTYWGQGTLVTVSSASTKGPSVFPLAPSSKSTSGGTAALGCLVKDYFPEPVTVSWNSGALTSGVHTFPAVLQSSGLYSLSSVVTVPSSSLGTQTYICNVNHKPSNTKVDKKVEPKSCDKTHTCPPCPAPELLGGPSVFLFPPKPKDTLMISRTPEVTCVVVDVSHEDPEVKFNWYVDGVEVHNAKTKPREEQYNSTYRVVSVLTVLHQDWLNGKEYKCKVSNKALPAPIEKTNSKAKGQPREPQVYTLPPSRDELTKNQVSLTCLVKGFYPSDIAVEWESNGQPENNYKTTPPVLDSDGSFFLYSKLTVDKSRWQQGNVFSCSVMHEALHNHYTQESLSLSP
light: B1 light
notes: also called Ho Ab I336_18N
B48: GpH7-A5/GpH7-B3 variant A327_09D/GpL16-k0 (antibody, human IgG1, kappa)
heavy 1: not shown
heavy 2: not shown
light: B1 light
notes: also called He Ab A327_09D
B49: GpH7-B3 variant I336_10E/GpL16-k0 (antibody, human IgG1, kappa)
heavy: not shown
light: B1 light
notes: also called Ho Ab I336_10E
B50: GpH7-B3 variant Q295_16H/GpL16-k0 (antibody, human IgG1, kappa)
heavy: not shown
light: B1 light
notes: also called Ho Ab Q295_16H
B51: GpH7-B3 variant P271_02A/GpL16-k0 (antibody, human IgG1, kappa)
heavy: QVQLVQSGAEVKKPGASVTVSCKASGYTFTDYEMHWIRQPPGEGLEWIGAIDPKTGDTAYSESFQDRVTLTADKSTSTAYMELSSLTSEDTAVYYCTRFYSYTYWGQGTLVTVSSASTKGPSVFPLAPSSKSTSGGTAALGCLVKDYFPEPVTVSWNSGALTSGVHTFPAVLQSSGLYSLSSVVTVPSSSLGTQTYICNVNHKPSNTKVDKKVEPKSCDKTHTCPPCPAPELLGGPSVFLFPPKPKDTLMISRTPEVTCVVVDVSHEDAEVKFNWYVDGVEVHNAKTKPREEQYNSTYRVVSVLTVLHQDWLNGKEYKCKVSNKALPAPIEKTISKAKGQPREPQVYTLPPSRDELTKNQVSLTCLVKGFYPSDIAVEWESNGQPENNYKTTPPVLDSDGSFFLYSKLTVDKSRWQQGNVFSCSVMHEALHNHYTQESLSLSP
light: B1 light
notes: also called Ho Ab P271_02A
B52: GpH7-A5/GpH7-B3 variant A327_07I/GpL16-k0 (antibody, human IgG1, kappa)
heavy 1: not shown
heavy 2: not shown
light: B1 light
notes: also called He Ab A327_07I
B53: GpH7-B3 variant P238_10E/GpL16-k0 (antibody, human IgG1, kappa)
heavy: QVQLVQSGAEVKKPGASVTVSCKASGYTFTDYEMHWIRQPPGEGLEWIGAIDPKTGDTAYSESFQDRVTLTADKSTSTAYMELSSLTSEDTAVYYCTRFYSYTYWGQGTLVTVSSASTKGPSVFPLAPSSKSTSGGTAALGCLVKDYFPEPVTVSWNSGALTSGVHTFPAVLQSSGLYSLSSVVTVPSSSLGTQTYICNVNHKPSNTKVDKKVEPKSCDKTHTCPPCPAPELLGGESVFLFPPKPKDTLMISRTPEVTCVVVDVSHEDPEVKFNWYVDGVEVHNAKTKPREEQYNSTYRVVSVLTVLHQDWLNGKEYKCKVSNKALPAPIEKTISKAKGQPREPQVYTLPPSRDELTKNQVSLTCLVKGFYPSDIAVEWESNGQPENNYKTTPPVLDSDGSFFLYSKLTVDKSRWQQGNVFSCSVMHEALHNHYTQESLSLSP
light: B1 light
notes: also called Ho Ab P238_10E
B54: GpH7-B3 variant I332_12R/GpL16-k0 (antibody, human IgG1, kappa)
heavy: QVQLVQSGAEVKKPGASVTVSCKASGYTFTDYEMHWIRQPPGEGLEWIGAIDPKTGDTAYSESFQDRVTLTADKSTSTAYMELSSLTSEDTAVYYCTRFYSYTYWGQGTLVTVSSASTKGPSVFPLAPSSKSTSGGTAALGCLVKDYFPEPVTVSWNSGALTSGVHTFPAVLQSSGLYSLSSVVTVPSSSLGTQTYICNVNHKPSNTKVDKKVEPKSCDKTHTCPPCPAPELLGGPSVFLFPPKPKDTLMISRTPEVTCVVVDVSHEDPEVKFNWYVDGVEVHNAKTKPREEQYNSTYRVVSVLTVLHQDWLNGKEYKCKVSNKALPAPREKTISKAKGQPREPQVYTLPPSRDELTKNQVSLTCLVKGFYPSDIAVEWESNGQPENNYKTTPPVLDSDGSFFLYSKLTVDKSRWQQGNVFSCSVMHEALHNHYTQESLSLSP
light: B1 light
notes: also called Ho Ab I332_12R
B55: GpH7-B3 variant H268_14T/GpL16-k0 (antibody, human IgG1, kappa)
heavy: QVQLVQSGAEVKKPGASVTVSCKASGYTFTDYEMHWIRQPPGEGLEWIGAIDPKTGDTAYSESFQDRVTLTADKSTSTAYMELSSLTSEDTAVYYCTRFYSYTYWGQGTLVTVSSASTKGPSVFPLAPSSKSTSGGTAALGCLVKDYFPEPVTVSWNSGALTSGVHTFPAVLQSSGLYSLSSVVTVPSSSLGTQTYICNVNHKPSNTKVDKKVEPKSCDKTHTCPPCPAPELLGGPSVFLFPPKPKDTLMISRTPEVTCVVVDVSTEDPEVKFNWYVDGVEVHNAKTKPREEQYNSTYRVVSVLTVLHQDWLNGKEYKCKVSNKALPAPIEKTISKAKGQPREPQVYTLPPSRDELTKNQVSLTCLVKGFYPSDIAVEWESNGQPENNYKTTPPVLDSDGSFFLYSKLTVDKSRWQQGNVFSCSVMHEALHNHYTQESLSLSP
light: B1 light
notes: also called Ho Ab H268_14T
B56: GpH7-A5/GpH7-B3 variant A330_05P/GpL16-k0 (antibody, human IgG1, kappa)
heavy 1: not shown
heavy 2: not shown
light: B1 light
notes: also called He Ab A330_05P
B57: GpH7-B3 variant K334_12R/GpL16-k0 (antibody, human IgG1, kappa)
heavy: not shown
light: B1 light
notes: also called Ho Ab K334_12R

Tests used:
FcγRIa [1] = target: T1, FcγRIa (human, UniProt P12314 16-292); experiment: SPR (Biacore); Ho Ab relative to HoCon Ab = 100
T1 construct: extracellular domain; also called FcgRI; 1a
T1 sequence (P12314 16-292): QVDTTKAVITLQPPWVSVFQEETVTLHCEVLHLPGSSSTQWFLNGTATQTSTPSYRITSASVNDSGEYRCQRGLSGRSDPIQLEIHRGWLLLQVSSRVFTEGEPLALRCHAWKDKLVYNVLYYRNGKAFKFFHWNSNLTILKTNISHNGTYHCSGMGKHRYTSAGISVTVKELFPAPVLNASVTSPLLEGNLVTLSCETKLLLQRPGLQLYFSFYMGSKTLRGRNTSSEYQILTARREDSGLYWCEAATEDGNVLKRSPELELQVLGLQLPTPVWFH
Experimental: (§1) Analysis of interaction between objective antibody and the FcγR was carried out using Biacore T100 (GE Healthcare). HBS-EP+ (GE Healthcare) was used as the running buffer, and the measurement temperature was set to 25° C. Chips produced by immobilizing the antigen peptide by the amine coupling method to a Series S Sencor Chip CM5 (GE Healthcare), or alternatively, chips produced by allowing preliminarily biotinylated antigen peptides to interact with and immobilize onto a Series S Sensor Chip SA (certified) (GE Healthcare) were used. Antibodies of interest were captured onto an antigen peptide-immobilized chip, and allowed to interact to each FcγR diluted with running buffer. To regenerate and repeatedly use the chip, the antibodies captured on the chip were washed off by reacting 10 mM glycine-HCl, pH 1.5.

FcγRIa [2] = target: T1, FcγRIa; experiment: SPR (Biacore); He Ab relative to HeCon Ab = 100
Experimental: as §1

Row | Binder | Ho/Con_1a (FcγRIa [1]) | He/Con_1a (FcγRIa [2])
1 | B1 | 105 % of control | 
2 | B2 |  | 104 % of control
3 | B3 |  | 103 % of control
4 | B4 | 101 % of control | 
5 | B5 | 98.7 % of control | 
6 | B6 | 97.9 % of control | 
7 | B7 | 101 % of control | 
8 | B8 | 98.6 % of control | 
9 | B9 | 104 % of control | 
10 | B10 | 97 % of control | 
11 | B11 | 99.4 % of control | 
12 | B12 | 104 % of control | 
13 | B13 | 99.3 % of control | 
14 | B14 | 105 % of control | 
15 | B15 | 107 % of control | 
16 | B16 | 103 % of control | 
17 | B17 | 99.9 % of control | 
18 | B18 | 106 % of control | 
19 | B19 | 79.6 % of control | 

Row | Binder | Ho/Con_1a (FcγRIa [1]) | He/Con_1a (FcγRIa [2])
20 | B20 | 104 % of control | 
21 | B21 |  | 103 % of control
22 | B22 | 99.2 % of control | 
23 | B23 | 93.5 % of control | 
24 | B24 | 104 % of control | 
25 | B25 | 89.5 % of control | 
26 | B26 | 103 % of control | 
27 | B27 | 104 % of control | 
28 | B28 | 99.9 % of control | 
29 | B29 | 100 % of control | 
30 | B30 |  | 102 % of control
31 | B31 | 99.5 % of control | 
32 | B32 |  | 103 % of control
33 | B33 | 99.4 % of control | 
34 | B34 | 102 % of control | 
35 | B35 | 99.5 % of control | 
36 | B36 | 98.9 % of control | 
37 | B37 | 101 % of control | 
38 | B38 | 100 % of control | 

Row | Binder | Ho/Con_1a (FcγRIa [1]) | He/Con_1a (FcγRIa [2])
39 | B39 | 96.8 % of control | 
40 | B40 | 99 % of control | 
41 | B41 | 102 % of control | 
42 | B42 | 98.2 % of control | 
43 | B43 | 100 % of control | 
44 | B44 | 98.2 % of control | 
45 | B45 |  | 107 % of control
46 | B46 | 96.5 % of control | 
47 | B47 | 104 % of control | 
48 | B48 |  | 103 % of control
49 | B49 | 107 % of control | 
50 | B50 | 99.1 % of control | 
51 | B51 | 102 % of control | 
52 | B52 |  | 104 % of control
53 | B53 | 91.8 % of control | 
54 | B54 | 93.2 % of control | 
55 | B55 | 109 % of control | 
56 | B56 |  | 101 % of control
57 | B57 | 102 % of control | 
